Data as given in PMC5705219.

Molecular target: PRDM9 chimera: human exons 1-9 joined to the final exon (ZF array, 18 zinc fingers) of the chimpanzee reference PRDM9 allele w11a, C-terminally tagged with HA or V5 (human | chimpanzee)
Assay: co-IP; direct competition: HEK293T transfected with three constructs, Human and Chimp prey with the same epitope tag and Human or Chimp bait with the complementary tag; IP against the bait tag, western against the prey tag; both directions of HA/V5 tagging

Substance: PRDM9 chimera: human exons 1-9 joined to the final exon (ZF array, 18 zinc fingers) of the chimpanzee reference PRDM9 allele w11a, C-terminally tagged with HA or V5
- fold pull-down efficiency against Human PRDM9 prey on the same Chimp bait: > 2 fold
